B1: HDV Ribozyme (parent)
chain: GGCCGGCAUGGUCCCAGCCUCCUCGCUGGCGCCGGCUGGGCAACAUUCCGAGGGGACCGUCCCCUCGGUAAUGGCGAAUGGGACCCA

In the series the parent is B1. The experiment in a line: self-cleavage, relative activity (ratio to wild type); higher = more cleavage; co-transcriptional.
Consider A51U A71G, for which the self-cleavage amounted to 0.91.

G53C A56U: the self-cleavage came out at 1.11.

In the case of A8C C63A, the self-cleavage came to 0.852.

Take U9A U60C: the self-cleavage amounted to 1.02.

G17U G28C: the self-cleavage was determined as 0.0652.

In the case of G1C G81U, the self-cleavage came out at 0.192.

U72A G73C: the self-cleavage was found to be 0.628.

Take C14A C24A: the self-cleavage worked out at 0.383.

In the case of U20G G80U, the self-cleavage came out at 0.053.

Turning to G29A C64G, the self-cleavage is 0.202.

Turning to U69G C75A, the self-cleavage was determined as 0.107.

Turning to U65A G81U, the self-cleavage amounted to 0.353.

Turning to U47C C85U, the self-cleavage is 0.831.

Turning to C22A A43U, the self-cleavage stood at 0.0437.

Consider G2C A8G, for which the self-cleavage stood at 0.0554.

Turning to C48A A77C, the self-cleavage came out at 0.237.

Turning to C13G U37C, the self-cleavage stood at 0.237.

A8U U23A: the self-cleavage amounted to 0.804.

Turning to A43U A83C, the self-cleavage came to 0.0923.

In the case of G10U C84G, the self-cleavage was found to be 0.54.

Consider G17A G54A, for which the self-cleavage was determined as 0.786.

On to G1C C58U, for which the self-cleavage was 0.0923.

For the variant U65G C85G, the self-cleavage came to 0.692.

As for U27A C48U, the self-cleavage came to 0.95.

Regarding C36A A87G, the self-cleavage was found to be 0.125.

As for G10C U37A, the self-cleavage was found to be 0.177.

In the case of A8G G55A, the self-cleavage came to 0.655.

In the case of U9G G40A, the self-cleavage was found to be 1.29.

With C15U G25A, the self-cleavage was 0.0898.

Take C26A C48A: the self-cleavage turned out to be 0.941.

Consider G25A C33G, for which the self-cleavage was determined as 0.0228.

Take U60C A77C: the self-cleavage came out at 0.575.

With U12C G81C, the self-cleavage stood at 0.18.

G35A A70U: the self-cleavage was 0.62.

For C24A G74C, the self-cleavage came out at 0.0326.

Turning to C19G A71C, the self-cleavage turned out to be 0.0665.

As to C3G C58A, the self-cleavage turned out to be 0.842.

Turning to C19U U20C, the self-cleavage came out at 0.145.

As to C75A C85U, the self-cleavage stood at 0.256.

Regarding C21A A70C, the self-cleavage is 0.0426.

Consider C24U G82A, for which the self-cleavage was 0.107.

U9C G68C: the self-cleavage is 0.89.

On to A8G U60A, for which the self-cleavage worked out at 0.95.

As for C19A A78C, the self-cleavage was 0.0248.

As to C33G A71U, the self-cleavage was found to be 0.213.

Regarding C3A A8C, the self-cleavage was 0.299.

Turning to U47G G52U, the self-cleavage was 0.877.

As to G2C G55C, the self-cleavage turned out to be 0.0656.

As to C4U C64U, the self-cleavage was found to be 0.695.

Turning to G74A C84A, the self-cleavage stood at 0.389.

Turning to U9C G34A, the self-cleavage was found to be 0.208.

G28A C58G: the self-cleavage was found to be 0.0369.

Regarding G25A C63A, the self-cleavage was 0.125.

For the variant G54U U69C, the self-cleavage is 1.16.

In the case of G50A U72A, the self-cleavage came out at 0.677.

Take G38U A51U: the self-cleavage came out at 0.308.

For the variant C44G U46A, the self-cleavage stood at 0.9.

On to A8U U47G, for which the self-cleavage came to 0.831.

G29U A42U: the self-cleavage is 0.102.

As to C22A A42G, the self-cleavage came out at 0.

A51U C63U: the self-cleavage is 0.88.

As to G80U C84U, the self-cleavage came to 0.164.

Take G28U C86U: the self-cleavage was 0.0594.

G5U G68C: the self-cleavage came to 0.359.

With A16C C32G, the self-cleavage is 0.293.

For C3U C84U, the self-cleavage is 0.808.

G59U C66U: the self-cleavage amounted to 0.875.

Take C36A C84G: the self-cleavage amounted to 0.208.

With A8G C32U, the self-cleavage was found to be 0.609.

G5U A87G: the self-cleavage was 0.636.

Take C7U G38U: the self-cleavage worked out at 0.109.

Take C22A C75G: the self-cleavage is 0.0604.

As for C57U G80C, the self-cleavage stood at 0.145.

As for A8C U20A, the self-cleavage was 0.0615.

With C62G C64U, the self-cleavage worked out at 0.485.

Regarding A42U A87G, the self-cleavage is 0.389.

Regarding C3G G55U, the self-cleavage stood at 0.821.

Turning to U9A U27C, the self-cleavage worked out at 0.795.

C13A G74A: the self-cleavage worked out at 0.101.

For U27A C85A, the self-cleavage came to 0.957.

For C19U G67C, the self-cleavage was found to be 0.0715.

With G29C C75U, the self-cleavage is 0.0287.

In the case of C3G U60G, the self-cleavage was 0.773.

Turning to G11C A51U, the self-cleavage was determined as 0.426.

Consider G38A A56C, for which the self-cleavage turned out to be 0.13.

Consider C7U U65A, for which the self-cleavage stood at 0.475.

Consider G6A A45C, for which the self-cleavage worked out at 0.0519.

As to C4U C19A, the self-cleavage was 0.0678.

With C14U C19A, the self-cleavage is 0.0545.

In the case of G5C G10C, the self-cleavage came to 0.

With C18G G29C, the self-cleavage came out at 0.939.

Regarding C33G G38U, the self-cleavage is 0.246.

For the variant G40U C85G, the self-cleavage came to 0.612.

For C24A G59A, the self-cleavage came to 0.842.

As for C18A G53C, the self-cleavage is 0.214.

G38C U46G: the self-cleavage stood at 0.095.

On to C15G C57U, for which the self-cleavage worked out at 0.554.

On to C57A A87U, for which the self-cleavage was determined as 1.13.

In the case of G5U C21G, the self-cleavage turned out to be 0.0791.

In the case of U47G A87U, the self-cleavage worked out at 0.974.

For U12C A56C, the self-cleavage came out at 0.453.

Consider C18U U69G, for which the self-cleavage stood at 0.453.

Take G76C G82C: the self-cleavage is 0.225.

Regarding A8U C58G, the self-cleavage came out at 0.582.

For the variant C26G C41G, the self-cleavage is 0.739.

Consider G10A C18U, for which the self-cleavage is 0.138.

For C14A G17C, the self-cleavage came to 0.123.

In the case of A51C C84U, the self-cleavage worked out at 0.831.

Turning to U37C A70U, the self-cleavage was determined as 0.974.

On to C49G A56C, for which the self-cleavage is 0.785.

On to C22G G29C, for which the self-cleavage was found to be 0.0536.

On to C66G U79G, for which the self-cleavage is 0.772.

Regarding A43G G76A, the self-cleavage is 0.391.

As for G2U A16G, the self-cleavage came out at 0.0426.

Consider U27G C33G, for which the self-cleavage turned out to be 0.104.

Turning to C21U C58G, the self-cleavage came to 0.227.

Turning to G29U A71U, the self-cleavage is 0.0831.

In the case of A51C G68A, the self-cleavage is 0.916.

C24A G81U: the self-cleavage amounted to 0.185.

In the case of C36A G39C, the self-cleavage was found to be 0.128.

As to G1U C49A, the self-cleavage is 0.502.

As for C15U G82A, the self-cleavage turned out to be 0.325.

Take A43C C57A: the self-cleavage came to 0.785.

For G29A C44U, the self-cleavage came to 0.151.

Regarding G6A U12A, the self-cleavage stood at 0.253.

For the variant C18U G59U, the self-cleavage amounted to 0.67.

In the case of C36G A83C, the self-cleavage turned out to be 0.0831.

For the variant G67A G73C, the self-cleavage amounted to 0.13.

On to G54U G59U, for which the self-cleavage stood at 1.14.

In the case of G31A C64G, the self-cleavage turned out to be 0.408.

Regarding G6A G50C, the self-cleavage was found to be 0.767.

For the variant C22G G81A, the self-cleavage was 0.0528.

On to G35A C41U, for which the self-cleavage stood at 0.524.

On to C57U G82A, for which the self-cleavage is 0.269.

On to A45C A70C, for which the self-cleavage was 0.615.

In the case of G39C C49U, the self-cleavage is 0.166.

As for G31A A56C, the self-cleavage was found to be 0.445.

Regarding G55C G73C, the self-cleavage stood at 0.479.

On to G29A C41U, for which the self-cleavage is 0.25.

Take C3G G68U: the self-cleavage turned out to be 0.383.

Regarding C14U A77U, the self-cleavage came to 0.573.

For A43G C66G, the self-cleavage came to 0.404.

In the case of G5C G59A, the self-cleavage stood at 0.344.

On to G52C C61G, for which the self-cleavage is 0.886.

As for G28C C86U, the self-cleavage amounted to 0.

On to U23G C32A, for which the self-cleavage was 0.0652.

As to U60C C66U, the self-cleavage stood at 0.997.

Take U9A C36G: the self-cleavage was 0.369.

Turning to C58U U79C, the self-cleavage stood at 0.38.

For C30A A87G, the self-cleavage worked out at 0.614.

In the case of G1C G59C, the self-cleavage is 0.365.

Consider G34C G35C, for which the self-cleavage is 0.246.

As for U23A U37A, the self-cleavage came out at 0.0997.

As to C48U C58A, the self-cleavage came out at 1.06.

As to G59C U65G, the self-cleavage is 0.95.

In the case of C21G G68U, the self-cleavage was found to be 0.

On to C4U C61G, for which the self-cleavage was 0.394.

As to C22A A87C, the self-cleavage is 0.491.

Consider C64U C85U, for which the self-cleavage is 1.08.

With C21G U60C, the self-cleavage came out at 0.0489.

For the variant C44G C63G, the self-cleavage turned out to be 0.441.

As for C14A G31C, the self-cleavage was 0.0678.

C32U C49A: the self-cleavage was 0.683.

In the case of U37C G52C, the self-cleavage came to 0.856.

On to C30U G52U, for which the self-cleavage was 0.709.

For G40A U69A, the self-cleavage amounted to 0.892.

Turning to A43G A70G, the self-cleavage stood at 0.914.

For the origin of these results see the RNAGym collection of RNA variant scans (doi:10.7554/elife.80360).
